One molecule from patent publication US20260234262A1 can be followed below.

The test deals with Target 2 (canine examples 1 to 4) (canine). The experiment in a line: SPR, Biacore T200; antibody captured on anti-canine coupled CM5 chip, antigen in solution, 1:1 fit.

B1: 02F09R3-Fc (Fc fusion)
chain: QVQLVESGGGLVQAGGSLRLSCVASGSTFSNLVMAWYRQAPGKQREWVARISLAGNTIYADSVKGRFTISRDNAKNTVYLQMNSLKIEDTAVYYCSRGGVDWGQGTQVTVSSGPGGQVPKRENGRVPRPPDCPKCPAPEAAGGPSVFIFPPKPKDTLLIARTPEVTCVVVDLDPEDPEVQISWFVDGKQMQTAKTQPREEQFNGTYRVVSVLPIGHQDWLKGKQFTCKVNNKALPSPIERTISKARGQAHQPSVYVLPPSREELSKNTVSLTCLIKDFFPPDIDVEWQSNGQQEPESKYRTTPPQLDEDGSYFLYSKLSVDKSRWQRGDTFICYVMHEALHNHYTQESLSHSP
modifications: N-terminal pyroglutamate (PyroQ) observed by intact mass
Consider B1, for which the Kd was found to be 0.213 nM, the koff is 6.24e-05 s⁻¹ and the kon is 293000 M⁻¹ s⁻¹.
